Test results published in US11767351B2, “Recombinant lectin and uses thereof” (CITY OF HOPE, priority 2017, dated 2023).
“Also recorded” adds a separate entry of the source.

How the values were obtained:
[1] = Glycan microarray (RayBio Glycan Array 100); format: binding; settings: biotin-labeled SHAs 20 μg/ml (1×) and 2 μg/ml (0.1×), absence of L-rhamnose
[2] = Glycan microarray (RayBio Glycan Array 100); format: binding; settings: biotin-labeled SHAs 20 μg/ml (1×) and 2 μg/ml (0.1×), absence of L-rhamnose; remark: listed apart in the source
[3] = Glycan microarray (RayBio Glycan Array 100); format: binding; settings: biotin-labeled SHAs 20 μg/ml (1×) and 2 μg/ml (0.1×), absence of L-rhamnose; remark: listed apart in the source
[4] = Glycan microarray (RayBio Glycan Array 100); format: binding; settings: biotin-labeled SHAs 20 μg/ml (1×) and 2 μg/ml (0.1×), absence of L-rhamnose; remark: listed apart in the source
[5] = Glycan microarray (RayBio Glycan Array 100); format: binding; settings: biotin-labeled SHAs 20 μg/ml (1×) and 2 μg/ml (0.1×), absence of L-rhamnose; remark: listed apart in the source
[6] = Glycan microarray (RayBio Glycan Array 100); format: binding; settings: biotin-labeled SHAs 20 μg/ml (1×) and 2 μg/ml (0.1×), absence of L-rhamnose; remark: listed apart in the source
[7] = Glycan microarray (RayBio Glycan Array 100); format: binding; settings: biotin-labeled SHAs 20 μg/ml (1×) and 2 μg/ml (0.1×), absence of L-rhamnose; remark: listed apart in the source
[8] = Glycan microarray (RayBio Glycan Array 100); format: binding; settings: biotin-labeled SHAs 20 μg/ml (1×) and 2 μg/ml (0.1×), absence of L-rhamnose; remark: listed apart in the source
[9] = Glycan microarray (RayBio Glycan Array 100); format: binding; settings: biotin-labeled SHAs 20 μg/ml (1×) and 2 μg/ml (0.1×), absence of L-rhamnose; remark: listed apart in the source
[10] = Glycan microarray (RayBio Glycan Array 100); format: binding; settings: biotin-labeled SHAs 20 μg/ml (1×) and 2 μg/ml (0.1×), absence of L-rhamnose; remark: listed apart in the source
[11] = Glycan microarray (RayBio Glycan Array 100); format: binding; settings: biotin-labeled SHAs 20 μg/ml (1×) and 2 μg/ml (0.1×), absence of L-rhamnose; remark: listed apart in the source
[12] = Glycan microarray (RayBio Glycan Array 100); format: binding; settings: glycans listed in Table 4
Procedure: Glycan microarray analyses—Microarray analysis was performed according to the manufacturer recommendations using RayBio Glycan Array 100 (RayBiotech, Norcross Ga.) slides. Each slide contains four sub-microarrays printed with 100 synthetic glycans. Briefly, 200 μL of 0.1 mg/mL of both archived SHA and rSHA were dialyzed overnight at 4° C. against 1×PBS dialysis buffer to avoid contaminating samples with amines prior to biotinylation. Dialyzed samples were incubated with biotin-containing reaction solution at 22° C. for 30 min. Sub-arrays were blocked for 30 min at 22° C. After biotinylated SHA samples were diluted with 1×PBS, 400 μL of each sample was added to each sub-array. Slide #1 sub-arrays were incubated with 400 μL of 20 μg/mL (1×) or 2 μg/mL (0.1×) SHA, in the absence or presence of 0.2 M L-Rhamnose. Slide #2 sub-arrays were incubated with 400 μL of 20 μg/mL (1×) or 2 μg/mL of rSHA (0.1×), in the absence or presence of 0.2 M L-rhamnose. Slides were incubated for 16 h at 4° C. for highest intensities. […]
(§1) Therefore, a novel construct that encoded an E. coli codon-optimized, His-tagged, Trx-SMT3 (SUMO family protein)-SHA(A108E) fusion protein was expressed. […] The glycan binding was measured using two distinct concentrations of biotin-labeled SHAs (1×: 20 μg/ml and 0.1×: 2 μg/ml) in the absence and presence of 0.2 M L-rhamnose as a competitive inhibitor.

[13] = Glycan microarray (RayBio Glycan Array 100), whole array profile and L-rhamnose competition; format: binding; settings: for carbohydrate-binding specificity compared with archived SHA: side by side on Glycan Array 100
Procedure: Glycan microarray analyses—Microarray analysis was performed according to the manufacturer recommendations using RayBio Glycan Array 100 (RayBiotech, Norcross Ga.) slides. Each slide contains four sub-microarrays printed with 100 synthetic glycans. Briefly, 200 μL of 0.1 mg/mL of both archived SHA and rSHA were dialyzed overnight at 4° C. against 1×PBS dialysis buffer to avoid contaminating samples with amines prior to biotinylation. Dialyzed samples were incubated with biotin-containing reaction solution at 22° C. for 30 min. Sub-arrays were blocked for 30 min at 22° C. After biotinylated SHA samples were diluted with 1×PBS, 400 μL of each sample was added to each sub-array. Slide #1 sub-arrays were incubated with 400 μL of 20 μg/mL (1×) or 2 μg/mL (0.1×) SHA, in the absence or presence of 0.2 M L-Rhamnose. Slide #2 sub-arrays were incubated with 400 μL of 20 μg/mL (1×) or 2 μg/mL of rSHA (0.1×), in the absence or presence of 0.2 M L-rhamnose. Slides were incubated for 16 h at 4° C. for highest intensities. Washing was performed according to the manufacturer's protocol, followed by incubation with Cy3 dye-conjugated streptavidin. The slides were incubated at 22° C. for 1 h with gentle shaking, then washed multiple times as recommended. The signals were visualized using an Agilent DNA microarray scanner (Model G2505C; Agilent, Santa Clara, Calif.) at 532 nm for Cy3. Data extraction and analysis was performed after subtraction of the background and normalization to the internal references provided by the manufacturer, using an ImageJ Protein Array Analyzer software (28).
as §1

[14] = Solubility of recombinant SHA proteins; format: physicochemical; settings: expressed in E. coli
Procedure: Due to solubility issues various fusion proteins of the recombinant SHA were prepared and expressed in E. coli. Of those, a yeast SUMO(SMT3)-fusion protein was successfully purified for comparing carbohydrate-binding specificity with that of archived SHA. Briefly, SMT3-fused SHA(A108E) was prepared by insertion at the SMT3 and Ulp1 cleavage sites of pET32b/SHA(A108E). E. Cloni® (Lucigen) was transformed by pET32b/SMT3-SHA(A108E). […] SHA(A108E) was cleaved off from SMT3 bound to the column by incubating with UPL1. The resulting SHA(A108E) was purified by gum arabic gels. The authenticity of SHA(A108E) was confirmed by SDS-PAGE and glycan microarray analyses.
as §1, with “expressed. This protein was refolded on the nickel NTA column in the presence of D-galactose, and soluble recombinant SHA (rSHA) was cleaved off from the Trx-SMT3 portion using His-tagged Ulp1 (8). The purified rSHA is shown in FIG. 6C, together with archived SHA.” for “expressed.”

B1: rSHA: recombinant SHA(A108E) expressed in E. coli, cleaved from Trx-SMT3 fusion; SEQ ID NO: 25 (protein)
chain: ARTVCYAAHVEGIGWQGAVCDGAVAGTTGQSRRMEAAVIATSGTGGVCANAHLADIGWQGWACAADGKAVTVGTTGQSRRMEALGLQVGNGSVAAQAHVADYGWLNAEGGNPVYVGTTGQSRRMEAVRIWV
modifications: recombinant SHA
binding signal to β-Gal- [1]: Strong signals | binding signal to α-Rha- [2]: Strong signals | binding signal to Gal-α-1,3-Gal-β-1,3-GlcNAc-β- [3]: Strong signals | binding signal to Gal-α-1,3-Gal-β-1,4-Glc-β- [4]: Strong signals | binding signal to Gal-α-1,4-Gal-β-1,3-GlcNAc-β- [5]: Strong signals | binding signal to Blood B antigen trisaccharide [6]: Strong signals | binding signal to Blood B antigen tetrasaccharide [7]: Strong signals | binding signal to Gal-α-1,3-Gal-β- [8]: Strong signals | binding to Gal-α-1,4-Gal-β-1,4-Glc-β- [9]: weaker, but still significant, binding | binding to GaINAc-β-1,3-Gal-β-1,4-Glc-β- [10]: weaker, but still significant, binding | binding to Gal-α-1,4-Gal-β-1,4-GlcNAc-β- [11]: weaker, but still significant, binding | binding to the remaining 89 chip-immobilized glycans [12]: did not bind | binding to all glycans, except α-Rha, in the presence of L-rhamnose ([13]; 0.2 M L-rhamnose as competitive inhibitor): competitively inhibited | carbohydrate-binding specificity compared with archived SHA [13]: identical carbohydrate-binding specificities; also recorded: same glycan specificity profile | carbohydrate-binding specificity compared with archived SHA ([13]; listed as SHA(A108E)): same carbohydrate-binding specificity | solubility [14]: soluble
